In patent US20250304625A1, “ARTICLES AND METHODS FOR INHIBITING METHIONINE AMINOPEPTIDASE ACTIVITY” (Vanderbilt University, priority 2022, published 2025):
Values belong to the molecule of their own block, whether it stands above or below them.

What was measured:
[1] = test system: zebrafish larvae (WT and zng1^−/−); assay: Zebrafish larval survival under Metap inhibitor immersion; type: in vivo
Protocol: (§1) For all experiments larval zebrafish were bred naturally and collected into embryo media and were maintained at 28° C. on a 14/10 h light/dark cycle for duration of experiments. For survival experiments, zebrafish larvae were split into even densities into 6 or 12 multi-well plates in 5 mL or 1 mL embryo media respectively at 3 dpf. Stock solutions of METAP2 inhibitor TNP-470 (Sigma, T1455) and METAP1/2 inhibitor Bengamide B (Santa cruz, sc-397521A) were prepared in ACS-grade DMSO (Fisher Scientific, D136) and TPEN (Sigma, P4413) was prepared in ethanol and stored at −20° C. TNP-470, Bengamide B, and/or TPEN were applied into embryo media as well as a DMSO and/or ethanol vehicle controls at 3 dpf. Zebrafish survival was monitored daily until 6 dpf and all moribund or dead animals were removed. For qPCR experiments, larvae were split at 3 dpf into groups of 20-30 larvae in 20 mL of embryo media supplemented either 20 μM of TPEN or ethanol vehicle control. For imaging experiments, 6 dpf zebrafish larvae treated with 500 nM to 1 μM of Bengamide B or vehicle control were imaged by a Leica Thunder M205FCA stereomicroscope with a Leica DFC9000 GT camera.

[2] = test system: zebrafish larvae (WT, zng1 mutant, metap1 mutant); assay: Zebrafish larval morphometry and gross pathology imaging; type: in vivo
Protocol: as §1

[3] = test system: TKPTS cells; assay: TKPTS cell proliferation by CellTrace flow cytometry; type: cell-based, murine
Protocol: TKPTS cells were seeding at 2,000 to 4,000 cells per well of 24- or 12-well tissue culture treated multi-well plates and incubated overnight at 37° C. Cells were staining with CellTRACE violet (Invitrogen, C34557) as described by manufacturer's protocol. Briefly, CellTRACE solution was prepared in PBS at a 1:1,000 dilution, added to the cells, and cells were incubated for 20 min at 37° C. Cells were then washed two times in cell culture media supplemented with 7% FBS, and replaced with fresh cell culture media supplemented with desired chemical treatments (3 μM TPA, Sigma, 723134; 5 μg/ml TNP470, Sigma, T1455; or 50 nM Bengamide B, Santa cruz, sc-397521A). Stock solutions of drugs were prepared in ACS-grade DMSO (Fisher Scientific, D136). […] After three days of growth, cells were stained with MitoTracker far-red (Invitrogen, M22426; 1:2500 dilution for 20 min at 37° C.) and MitoSOX red (Molecular probes, M36008: 1,1000 for 20 min at 37° C.) following manufacture's protocols. Cells were washed with PBS, trypsinized, and transferred to Eppendorf tubes prior to fixation in 4% PFA (Alfa aesar, J61899). Cells were fixed for 20 min at room temperature, centrifuged at 200×g for 10 min and washed with PBS prior to resuspension in 300 μl FACS buffer (2% FBS, 0.02% sodium azide in PBS). All flow cytometry data were collected using a BD LSRII flow cytometer with FACSDIVA software and analyzed using FlowJo (FlowJo LLC). Samples were gated forward scatter height (FSC-H) by forward scatter area (FSC-A) and side scatter height (SSC-H) by side scatter area (SSC-A) to remove doublet populations. The singlet population was gated SSC-A by FSC-A to isolate live cells. The resulting cell population was then assessed for assay-specific fluorescent markers and the median fluorescence intensity (MFI) quantified.

[4] = biological target: T1, murine METAP1 (Mus musculus, UniProt Q8BP48); assay: Murine ZNG1 activation of METAP1 assay (Met release from MAHAIHY); type: biochemical
T1 construct: final preparations of full-length METAP1 utilized in in vitro experiments in this study were purified, stripped of metal; 6xHis (N, cleaved yes); SUMO (N, cleaved yes); made in house; host or cells: E. coli BL21(DE3)
Protocol: Methionine aminopeptidase activity was evaluated by quantifying the release of Met from the heptapeptide MAHAIHY (Genscript) as adapted from (Kabir-ud-Din, 2003). Reactions were conducted at 25° C. in 25 mM HEPES pH 7.4, 150 mM NaCl, 2 mM TCEP and consisted of 20 nM murine METAP1 with 0, 1, or 2 molar equivalents of Zn. Reactions were initiated with the addition of varying concentrations of MAHAIHY peptide. 50 μL aliquots were taken every 30 sec from 30-150 sec and the reaction was quenched with the addition of 10 μL glacial acetic acid (Supelco, Sigma-Aldrich). 60 μL of 4% w/v ninhydrin (Sigma-Aldrich) in 100% ACN was added to each quenched reaction and incubated at 37° C. for 1 h to detect free Met. The absorbance at 570 nm was measured and the cleaved Met concentration was determined from a standard curve of 10-500 μM Met. All data are reported as the average of triplicate measurements from each evaluated experimental condition. Midpoint and completed reactions were additionally analyzed by LC-ESI-MS to confirm the generation of the expected AHAIHY cleaved peptide product (FIG. 11 I).
Activation assays were performed in 25 mM HEPES pH 7.4, 150 mM KCl, 2 mM MgCl2, 2 mM TCEP. 250 μM NTA was included where indicated. 10 μM Zn2METAP1 was incubated with 25 μM apo or ZnZNG1 (ZNG1 loaded with 0.9 eq, 22.5 μM, Zn) at 37° C. for 1 h. Reactions were diluted 500-fold in 25 mM HEPES pH 7.4, 150 mM NaCl, 2 mM TCEP to a final concentration of 20 nM METAP1 and methionine aminopeptidase activity was assayed as described above by initiating the enzymatic reaction with addition of 750 μM MAHAIHY. When using GTP, GDP, or GDPNP, the activation reaction contained 500 μM of the indicated nucleotide. A control activation reaction of Zn-NTA contained 22.5 μM and 250 μM NTA in reaction buffer.

[5] = biological target: murine METAP1 1-59 (mouse, UniProt Q8BP48); assay: intrinsic Trp (W45) fluorescence quenching, 1:1 model
Protocol: (§2) Peptide binding experiments were performed using an ISS PC1 spectrofluorometer at 25.0° C. Intrinsic Trp fluorescence was monitored using λₑₓ=292 nm nm and λₑₘ=350 nm, with quenching of the 350 nm emission maxima as aliquots of ZNG1 peptide were added. Different [METAP1_{1-59/1-79}] values were used for replicate experiments to better calculate the binding stoichiometry and analyzed globally. In a typical experiment, 5 μM METAP1_{1-59/1-79} in 2.5 mL were incubated for 10 min in chelexed buffer [25 mM HEPES (pH 7.4), 150 mM NaCl, and 2.5 mM TCEP], and aliquots of ZNG1 peptide were added. The equilibrium time was 2 min between subsequent additions of ZNG1 peptide. The peak emission intensities at 350 nm from triplicate experiments were globally fit to a 1:1 binding model using Dynafit (Kuzmic, 1996).
(§3) METAP1 binding of ZNG1 peptides was confirmed by monitoring quenching of W45 fluorescence in murine METAP1₁₋₅₉ and METAP1₁₋₇₉, upon addition of chemically synthesized N-terminal ZNG1 peptides from human, mouse, and zebrafish (FIGS. 2D,E and 9 I). […] Combined, these findings identify the specific regions of interaction between ZNG1 and METAP1.

[6] = biological target: murine METAP1 1-79 (mouse, UniProt Q8BP48); assay: as above
Protocol: as §2, §3

[7] = biological target: T2, zebrafish Metap1 (Danio rerio, UniProt Q4QRK0); assay: Zebrafish Metap1 methionine aminopeptidase activity (HPLC endpoint); type: biochemical; settings: 1 μM Dr Zng1 and 1 μM Metap1, 100 μM MAHAIHY
T2 construct: Full-length zebrafish metap1 was amplified from 6 dpf whole larval cDNA and cloned into pLM302; 6xHis (N); MBP (N); made in house; host or cells: E. coli BL21(DE3)
Protocol: A single endpoint assay was used for these experiments. Reaction buffer (20 mM HEPES (pH 7.5), 150 mM NaCl) was chelex treated overnight at 4° C. 1 μM solutions of zebrafish Metap1 and Zng1 were made in reaction buffer. To strip Zn from the METAP1 active site, 3 μM of TPEN was incubated with 1 μM METAP1 at 4° C. for 1 h. To prepare holo-Zng1 (Zn bound), Zng1 was incubated with 10 μM of ZnCl2 for 1 h at 4° C. As a control, Metap1 was incubated with reaction buffer alone. Following the 1 h incubation, Zng1 and Metap1 were washed four times with chelex-treated reaction buffer using protein concentration columns (Amicon Ultra, UFC500396). After washes, proteins were mixed and incubated at 37° C. for 30 min. Following incubation, 100 μM of the synthetic peptide MAHAIHY (Genscript) was added to reactions and incubated for 90 min at 37° C. Reactions were stopped by the addition of a final concentration of 2% trifluoroacetic acid and samples were centrifuged at max speed for 5 min. […]
Twenty μL of each sample and standard was analyzed on an Agilent 1260 Infinity II system. […] MAHAIHY and AHAIHY were detected using absorbance at 280 nm, and retention times were confirmed using each standard. Methionine aminopeptidase relative activity was determined by calculating the percent of MAHAIHY converted to AHAIHY using the AUC values at 280 nm for each peptide.

[8] = 10 μM Zn2METAP1, 25 μM ZNG1, no nucleotide

Molecule: CCCCCCCCCCCCCC(=O)O[C@H]1CC[C@H](NC(=O)[C@H](OC)[C@H](O)[C@@H](O)[C@H](O)/C=C/C(C)C)C(=O)N(C)C1 [Bengamide B]
- survival ([1]; WT control larvae, 1 μM inhibitor, three days of treatment): remained viable
- lethality ([1]; zng1 mutant larvae, 1 μM inhibitor, three days of treatment): 100%
- viability ([1]; zng1 mutant larvae, co-treatment 500 nM Bengamide B and TPEN vs 500 nM Bengamide B alone): decreased viability
- height at anterior anal fin (HAA) ([2]; WT larvae, 6 dpf, three days 500 nM vs vehicle): significantly reduced HAA
- morphologic abnormalities (PCE, YSE, USB, CD) ([2]; metap1 mutant larvae vs WT controls at 6 dpf, 1 μM): significantly higher morphologic abnormalities
- proliferation (CellTrace) ([3]; WT TKPTS cells, 50 nM Bengamide B): reduced cellular proliferation

Molecule: CO[C@@H]1[C@H](OC(=O)NC(=O)CCl)CC[C@]2(CO2)[C@H]1[C@@]1(C)O[C@@H]1CC=C(C)C [TNP-470]
- survival ([1]; zng1 mutant larvae compared to WT, Zn-deplete conditions (TPEN)): more pronounced
- survival ([1]; zng1 mutant larvae compared to WT, immersion, three days): decreased survival
- proliferation (CellTrace) ([3]; Zng1^−/− cells relative to WT, 5 μg/ml TNP-470): slowed proliferation

Molecule: Zebrafish Zng1: recombinant zebrafish Zng1, Zn bound (holo-Zng1)
- apo-Metap1 activity [7]: stimulates

Continued, in another order:

- activation of Zn2METAP1 [4, 8]: no activation
Molecule: ApoZNG1: recombinant murine ZNG1 devoid of bound metal

- Kd [5]: 100 nM
- Kd [6]: 100 nM
Molecule: Hs ZNG1 N-terminal peptide

- activation of Zn2METAP1 ([4]; 250 μM NTA, GDPNP): no effect
- activation of Zn2METAP1 ([4]; 250 μM NTA, GTP, above that of NTA-bound Zn): significant activation
- activation of Zn2METAP1 ([4]; 250 μM NTA, presence and absence of GDP): only minor activation
- activation of Zn4METAP1 ([4]; fully metalated Zn4METAP1, absence of nucleotide): no activation
- activation of Zn2METAP1 ([4]; in the presence of 500 μM GDP): some ZnZNG1-dependent activation
- activation of Zn2METAP1 ([4]; in the presence of 500 μM GDPNP): no activation
- activation of Zn2METAP1 ([4]; in the presence of 500 μM GTP): nearly fully activates
Molecule: ZnZNG1: recombinant murine ZNG1 loaded with 0.9 eq Zn at the high-affinity site
- activation of Zn2METAP1 [4, 8]: recovers small amounts of Zn4METAP1 activity

- Kd [5]: ~100 nM
- Kd [6]: ~100 nM
Molecule: Ac-AEEEYAEDCPELVPIETKNQE-NH2 [Mm ZNG1 N-terminal peptide]

- Kd [5]: ~100 nM
- Kd [6]: ~100 nM
Molecule: Ac-MEDEDECPELVPIKEKPSGP-NH2 [Dr ZNG1 N-terminal peptide]
